Biological target: cation-independent mannose 6-phosphate (M6P) receptor (MPR) (UniProt P11717)
Experiment: cell-based or functional assay

Chain of UniProt P11717 (P11717 41-2491): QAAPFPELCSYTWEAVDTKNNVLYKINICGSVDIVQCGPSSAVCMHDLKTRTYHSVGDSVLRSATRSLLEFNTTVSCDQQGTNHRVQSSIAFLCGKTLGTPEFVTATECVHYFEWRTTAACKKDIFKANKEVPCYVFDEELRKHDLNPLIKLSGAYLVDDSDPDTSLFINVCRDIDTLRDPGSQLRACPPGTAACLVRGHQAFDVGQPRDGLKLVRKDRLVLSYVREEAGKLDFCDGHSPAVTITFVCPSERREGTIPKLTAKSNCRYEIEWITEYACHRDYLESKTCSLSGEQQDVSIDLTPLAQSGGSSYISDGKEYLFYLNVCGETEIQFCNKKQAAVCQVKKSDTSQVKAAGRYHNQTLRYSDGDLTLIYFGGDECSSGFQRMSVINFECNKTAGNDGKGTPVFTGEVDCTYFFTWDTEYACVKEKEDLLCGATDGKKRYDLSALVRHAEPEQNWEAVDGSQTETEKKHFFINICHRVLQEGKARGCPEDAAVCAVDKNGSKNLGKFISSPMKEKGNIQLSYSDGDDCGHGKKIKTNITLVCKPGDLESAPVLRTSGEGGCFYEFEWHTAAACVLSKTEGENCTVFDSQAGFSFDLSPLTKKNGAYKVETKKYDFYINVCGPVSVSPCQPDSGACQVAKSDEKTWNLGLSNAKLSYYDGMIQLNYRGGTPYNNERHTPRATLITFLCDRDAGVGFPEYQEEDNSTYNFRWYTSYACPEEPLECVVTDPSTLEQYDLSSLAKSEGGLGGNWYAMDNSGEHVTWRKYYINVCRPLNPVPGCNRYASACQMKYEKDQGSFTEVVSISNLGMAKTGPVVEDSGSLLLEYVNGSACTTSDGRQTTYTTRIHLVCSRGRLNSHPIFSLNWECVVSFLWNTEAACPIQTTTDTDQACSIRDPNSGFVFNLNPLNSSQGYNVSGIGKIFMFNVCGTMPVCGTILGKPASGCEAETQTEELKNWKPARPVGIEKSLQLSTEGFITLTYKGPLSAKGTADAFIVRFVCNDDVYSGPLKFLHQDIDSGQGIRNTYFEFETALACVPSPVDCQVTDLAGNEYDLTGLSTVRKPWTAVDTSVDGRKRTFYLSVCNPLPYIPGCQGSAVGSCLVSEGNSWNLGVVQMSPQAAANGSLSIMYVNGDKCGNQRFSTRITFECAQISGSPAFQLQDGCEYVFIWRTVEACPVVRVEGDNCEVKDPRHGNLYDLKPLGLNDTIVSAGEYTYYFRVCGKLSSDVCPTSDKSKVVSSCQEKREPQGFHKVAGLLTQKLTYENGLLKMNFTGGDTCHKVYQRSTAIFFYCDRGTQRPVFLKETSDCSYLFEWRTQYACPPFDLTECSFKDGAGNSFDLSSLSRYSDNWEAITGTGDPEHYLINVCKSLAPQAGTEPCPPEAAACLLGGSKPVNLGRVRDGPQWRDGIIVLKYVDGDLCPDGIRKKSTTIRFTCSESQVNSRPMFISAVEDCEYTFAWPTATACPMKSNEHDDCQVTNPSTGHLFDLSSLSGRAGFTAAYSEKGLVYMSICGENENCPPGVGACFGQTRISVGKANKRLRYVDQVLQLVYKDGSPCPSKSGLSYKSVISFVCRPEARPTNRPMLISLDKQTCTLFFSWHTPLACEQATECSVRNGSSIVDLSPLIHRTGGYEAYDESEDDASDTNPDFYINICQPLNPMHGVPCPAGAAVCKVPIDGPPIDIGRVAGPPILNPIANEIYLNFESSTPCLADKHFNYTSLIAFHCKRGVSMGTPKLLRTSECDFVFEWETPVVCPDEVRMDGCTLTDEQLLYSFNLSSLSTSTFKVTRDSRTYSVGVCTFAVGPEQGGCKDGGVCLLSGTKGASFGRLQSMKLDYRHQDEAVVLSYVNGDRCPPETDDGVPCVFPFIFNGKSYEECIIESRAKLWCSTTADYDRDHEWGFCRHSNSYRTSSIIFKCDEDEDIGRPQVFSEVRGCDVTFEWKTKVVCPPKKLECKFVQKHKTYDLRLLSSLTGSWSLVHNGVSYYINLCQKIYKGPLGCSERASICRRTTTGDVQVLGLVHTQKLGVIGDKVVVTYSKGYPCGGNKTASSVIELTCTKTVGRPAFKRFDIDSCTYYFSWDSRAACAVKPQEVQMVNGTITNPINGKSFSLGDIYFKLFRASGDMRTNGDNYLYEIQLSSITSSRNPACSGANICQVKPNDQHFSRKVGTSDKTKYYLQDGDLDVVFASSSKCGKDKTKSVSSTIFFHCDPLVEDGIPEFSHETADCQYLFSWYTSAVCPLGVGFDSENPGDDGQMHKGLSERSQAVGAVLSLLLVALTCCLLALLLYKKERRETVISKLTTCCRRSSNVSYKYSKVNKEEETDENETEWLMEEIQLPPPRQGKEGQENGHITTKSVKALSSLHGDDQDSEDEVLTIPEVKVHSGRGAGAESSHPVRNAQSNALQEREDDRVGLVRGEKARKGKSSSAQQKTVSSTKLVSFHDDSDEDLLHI

For “alpha-L-iduronidase (IDUA) released by erythroid-induced MEL-KIiG cells (human IDUA cDNA) (from UniProt P35475 28-653) (enzyme)”, the intracellular IDUA level in LCLmps cells after uptake, relative to wild-type (% of wild-type levels) was 10 and the intracellular IDUA specific activity in LCLmps cells after 3 hr uptake from conditioned medium was 0.8 U/mg.

— US20170327844A1
